Tests used:
[1] = system: PE-Bce integrase fusion (PASTE v4; printed Bcel); experiment: cell_activity; conditions: PASTE v4 comparator, Hepa1c1c7; att sequences not given
[2] = system: PE-Bxb1 integrase fusion (PASTE v3; printed Bxbl); experiment: cell_activity; conditions: PASTE v3 comparator, Hepa1c1c7; att sequences not given

Bce att sites (PASTE v4)
activity (% mCherry-positive cells) [1]: 0.5

Bxb1 att sites (PASTE v3)
activity (% mCherry-positive cells) [2]: 3.8

Source: patent publication US20240401013
